B1: HEEH_KT_rd6_3632 (parent)
chain: DAEELIELVERALKEGREIILLGVRITSEEAGKWFIEWIRRFL
B2: 6NMW (parent)
chain: QGDIVVALYPYDGIHPDDLSFKKGEKMKVLEEHGEWWKAKSLLTKKEGFIPSNYVAKLN

Variants of: B1
Test: folding stability dG (cDNA display proteolysis); higher = more stable
Details: PBS, room temperature

First: A12H
Second: L13A
The “folding stability dG” value of the first is higher: 3.35 kcal/mol for the first, 3.14 kcal/mol for the second.

First: E4W
Second: D1W
The “folding stability dG” value of the first is lower: 4.19 kcal/mol for the first, 4.64 kcal/mol for the second.

Compared with V24E, R40M is higher in “folding stability dG” value: 2.9 kcal/mol for the first, 3.89 kcal/mol for the second.

Compared with R11A, V9C is higher in “folding stability dG” value: 3.52 kcal/mol for the first, 4.04 kcal/mol for the second.

First: I39V
Second: V24L
The “folding stability dG” value of the first is higher: 3.62 kcal/mol for the first, 3.43 kcal/mol for the second.

First: T27G
Second: K33R
The “folding stability dG” value of the first is lower: 3.67 kcal/mol for the first, 4.02 kcal/mol for the second.

Compared with T27A, L13T is lower in “folding stability dG” value: 3.94 kcal/mol for the first, 3.25 kcal/mol for the second.

Going from R41W to R41C, the “folding stability dG” value rises from 4.14 kcal/mol to 4.34 kcal/mol.

Going from W34Y to A2H, the “folding stability dG” value rises from 3.43 kcal/mol to 3.66 kcal/mol.

E7I and T27H are the same in “folding stability dG” value: 3.79 kcal/mol for the first, 3.79 kcal/mol for the second.

First: A2W
Second: F35Y
The “folding stability dG” value of the first is higher: 4.53 kcal/mol for the first, 3.25 kcal/mol for the second.

Going from A31T to A2N, the “folding stability dG” value falls from 3.86 kcal/mol to 3.4 kcal/mol.

Going from R25S to E7Y, the “folding stability dG” value rises from 3.51 kcal/mol to 3.77 kcal/mol.

First: L8H
Second: T27S
The “folding stability dG” value of the first is lower: 3.26 kcal/mol for the first, 3.67 kcal/mol for the second.

Compared with I39A, D1L is higher in “folding stability dG” value: 2.92 kcal/mol for the first, 4.31 kcal/mol for the second.

Going from R17D to R41H, the “folding stability dG” value rises from 2.99 kcal/mol to 3.64 kcal/mol.

Going from L21R to W38I, the “folding stability dG” value rises from 3.14 kcal/mol to 3.2 kcal/mol.

Going from G23R to W38R, the “folding stability dG” value falls from 3.54 kcal/mol to 2.89 kcal/mol.

Going from F42N to I6H, the “folding stability dG” value rises from 3.19 kcal/mol to 3.29 kcal/mol.

Compared with E29H, E37S is lower in “folding stability dG” value: 3.67 kcal/mol for the first, 3.52 kcal/mol for the second.

Going from R41Q to E29M, the “folding stability dG” value rises from 3.6 kcal/mol to 3.92 kcal/mol.

Compared with W38A, L43K is higher in “folding stability dG” value: 2.95 kcal/mol for the first, 3.09 kcal/mol for the second.

First: I26D
Second: E4K
The “folding stability dG” value of the first is lower: 2.97 kcal/mol for the first, 4.18 kcal/mol for the second.

Going from L21Q to A31E, the “folding stability dG” value rises from 2.93 kcal/mol to 4.2 kcal/mol.

Compared with A2M, G32H is lower in “folding stability dG” value: 3.92 kcal/mol for the first, 3.44 kcal/mol for the second.

Compared with I26K, A31W is higher in “folding stability dG” value: 3.26 kcal/mol for the first, 4.01 kcal/mol for the second.

First: R25T
Second: E29I
The “folding stability dG” value of the first is lower: 3.56 kcal/mol for the first, 3.94 kcal/mol for the second.

Compared with A31H, E29P is higher in “folding stability dG” value: 3.68 kcal/mol for the first, 4.06 kcal/mol for the second.

Compared with A12D, L13E is higher in “folding stability dG” value: 2.84 kcal/mol for the first, 2.96 kcal/mol for the second.

Going from E3M to E30R, the “folding stability dG” value rises from 3.73 kcal/mol to 3.84 kcal/mol.

First: E10W
Second: F42M
The “folding stability dG” value of the first is higher: 4.21 kcal/mol for the first, 3.76 kcal/mol for the second.

Going from R25I to G16D, the “folding stability dG” value falls from 3.67 kcal/mol to 3.07 kcal/mol.

Going from G32Q to E3K, the “folding stability dG” value rises from 3.43 kcal/mol to 3.8 kcal/mol.

Compared with K33W, A31V is higher in “folding stability dG” value: 3.7 kcal/mol for the first, 4.27 kcal/mol for the second.

First: V24M
Second: A12M
The “folding stability dG” value of the first is lower: 3.43 kcal/mol for the first, 3.56 kcal/mol for the second.

Going from E7A to W34H, the “folding stability dG” value falls from 3.99 kcal/mol to 3.54 kcal/mol.

Compared with R11Q, L5V is lower in “folding stability dG” value: 3.54 kcal/mol for the first, 3.23 kcal/mol for the second.

Going from D1M to F42V, the “folding stability dG” value falls from 4.11 kcal/mol to 3.58 kcal/mol.

First: G16C
Second: L8S
The “folding stability dG” value of the first is higher: 4.34 kcal/mol for the first, 3.08 kcal/mol for the second.

First: V9R
Second: R17I
The “folding stability dG” value of the first is lower: 2.87 kcal/mol for the first, 3.85 kcal/mol for the second.

Compared with I19C, V9N is lower in “folding stability dG” value: 4.54 kcal/mol for the first, 2.91 kcal/mol for the second.

For F42K, the “folding stability dG” value was 3.15 kcal/mol.

Variants of: B2
Test: as above
Details: PBS, room temperature

Going from E25C to Y11I, the “folding stability dG” value falls from 1.3 kcal/mol to 0.264 kcal/mol.

Going from I14A to G34N, the “folding stability dG” value falls from 3.22 kcal/mol to 2.22 kcal/mol.

First: D17H
Second: K23I
The “folding stability dG” value of the first is higher: 3.78 kcal/mol for the first, 2.95 kcal/mol for the second.

Going from I14Y to L30H, the “folding stability dG” value falls from 3.08 kcal/mol to 0.943 kcal/mol.

First: Y9N
Second: V29R
The “folding stability dG” value of the first is higher: 1.61 kcal/mol for the first, 0.08 kcal/mol for the second.

First: H33V
Second: G2F
The “folding stability dG” value of the first is lower: 3.16 kcal/mol for the first, 3.9 kcal/mol for the second.

Compared with K28N, T44N is higher in “folding stability dG” value: 2.02 kcal/mol for the first, 2.06 kcal/mol for the second.

First: E47Y
Second: S41V
The “folding stability dG” value of the first is higher: 2.25 kcal/mol for the first, 1.06 kcal/mol for the second.

First: D3H
Second: L8E
The “folding stability dG” value of the first is higher: 4.61 kcal/mol for the first, 0.697 kcal/mol for the second.

Going from K57M to K40Q, the “folding stability dG” value rises from 2.85 kcal/mol to 3.88 kcal/mol.

Compared with E31I, S52D is lower in “folding stability dG” value: 2.98 kcal/mol for the first, 1.16 kcal/mol for the second.

Going from Y9E to L19W, the “folding stability dG” value falls from 2.37 kcal/mol to 0.23 kcal/mol.

Going from K45N to K45E, the “folding stability dG” value falls from 4.22 kcal/mol to 4.09 kcal/mol.

Compared with K45V, H15G is higher in “folding stability dG” value: 1.61 kcal/mol for the first, 3.99 kcal/mol for the second.

First: E47H
Second: D12G
The “folding stability dG” value of the first is lower: 2.22 kcal/mol for the first, 2.7 kcal/mol for the second.

Going from H15Q to K57W, the “folding stability dG” value rises from 3.03 kcal/mol to 3.87 kcal/mol.

Compared with H33I, H15Y is higher in “folding stability dG” value: 3.23 kcal/mol for the first, 3.75 kcal/mol for the second.

Going from K45S to L42A, the “folding stability dG” value falls from 3.89 kcal/mol to 0.615 kcal/mol.

Going from I50D to V55F, the “folding stability dG” value rises from -0.59 kcal/mol to 4.1 kcal/mol.

Going from G24D to L8I, the “folding stability dG” value rises from 2.1 kcal/mol to 3.04 kcal/mol.

Compared with L43N, N53Q is higher in “folding stability dG” value: 2.4 kcal/mol for the first, 3.5 kcal/mol for the second.

Going from K22L to D17Q, the “folding stability dG” value rises from 3.21 kcal/mol to 3.88 kcal/mol.

Compared with D18H, S41Q is lower in “folding stability dG” value: 4.91 kcal/mol for the first, 0.463 kcal/mol for the second.

First: N53V
Second: E32T
The “folding stability dG” value of the first is lower: 2.88 kcal/mol for the first, 3.95 kcal/mol for the second.

Going from F49K to G34R, the “folding stability dG” value falls from 2.81 kcal/mol to 1.65 kcal/mol.

Compared with I14P, W37H is higher in “folding stability dG” value: 2.57 kcal/mol for the first, 2.59 kcal/mol for the second.

Compared with S41E, K23A is higher in “folding stability dG” value: -0.037 kcal/mol for the first, 3.39 kcal/mol for the second.

First: K22G
Second: H33A
The “folding stability dG” value of the first is lower: 2.74 kcal/mol for the first, 3.01 kcal/mol for the second.

Compared with P16K, L19Y is lower in “folding stability dG” value: 3.4 kcal/mol for the first, 0.613 kcal/mol for the second.

First: A56F
Second: Y11E
The “folding stability dG” value of the first is higher: 3.43 kcal/mol for the first, -0.944 kcal/mol for the second.

Going from E35Q to G24F, the “folding stability dG” value falls from 3.92 kcal/mol to 2.13 kcal/mol.

Compared with H33G, V5H is lower in “folding stability dG” value: 3.24 kcal/mol for the first, 1.41 kcal/mol for the second.

First: E31M
Second: T44E
The “folding stability dG” value of the first is higher: 3.05 kcal/mol for the first, 0.228 kcal/mol for the second.

Compared with P51N, N59Q is higher in “folding stability dG” value: 2.28 kcal/mol for the first, 3.56 kcal/mol for the second.

Compared with E32P, F49D is lower in “folding stability dG” value: 2.54 kcal/mol for the first, 1.19 kcal/mol for the second.

First: K28D
Second: V6M
The “folding stability dG” value of the first is lower: 1.21 kcal/mol for the first, 2.59 kcal/mol for the second.

Compared with A56Y, G24Y is lower in “folding stability dG” value: 3.8 kcal/mol for the first, 2.25 kcal/mol for the second.

First: G2T
Second: I50Y
The “folding stability dG” value of the first is higher: 3.29 kcal/mol for the first, -0.106 kcal/mol for the second.

First: D17M
Second: Y11H
The “folding stability dG” value of the first is higher: 3.47 kcal/mol for the first, 1.71 kcal/mol for the second.

Going from K22P to Y54W, the “folding stability dG” value rises from 0.747 kcal/mol to 2.19 kcal/mol.

Compared with K28C, G2D is lower in “folding stability dG” value: 3.9 kcal/mol for the first, 3.46 kcal/mol for the second.

Compared with P51Q, Y9H is higher in “folding stability dG” value: 1.09 kcal/mol for the first, 2.81 kcal/mol for the second.
